For this series the following is noted: Rattus norvegicus; pH 7; 25 °C; Urea; Fluorescence; NaPO4 25 mM; NaCl 75 mM; whole UniProt chain shown.

“And” between values parts separate entries of the source, which are not always exact repeats. Equal entries are not always repeated.

B1: Fatty acid-binding protein, intestinal wild type, P02693 (protein)
chain: MAFDGTWKVDRNENYEKFMEKMGINVVKRKLGAHDNLKLTITQEGNKFTVKESSNFRNIDVVFELGVDFAYSLADGTELTGTWTMEGNKLVGKFKRVDNGKELIAVREISGNELIQTYTYEGVEAKRIFKKE
Take B1: the denaturant m value is 0.83 kcal/mol/M and 0.74 kcal/mol/M; the “denaturant midpoint (higher = more stable)” value was 4.61 M and 4.77 M; the unfolding free energy was 3.82 kcal/mol and 3.54 kcal/mol.

The values are drawn from FireProtDB (doi:10.1021/bi052091o).
